The record followed here is US10385103B2, “Cell-permeable (ICP)-SOCS3 recombinant protein and uses thereof” (CELLIVERY THERAPEUTICS, INC., priority 2014, dated 2019).

The subject of the series is Chang cell. Put plainly: Cell viability of non-cancer cells, CellTiter-Glo. Format: cell-based, human. Particulars: 10 μM over 4 days. Here is the method:
Cells originated from human hepatocellular carcinoma cell (Hep3B, HepG2, Huh-7, SK-Hep1), human normal cells (HEK293, HaCaT, Chang liver cell) and mouse fibroblast (NIH3T3) were purchased from ATCC (Manassas, Va., USA) and KCLB (Seoul, Korea). All the cells were maintained as recommended by the supplier. These cells (3×10^3/well) were seeded in 96 well plates. The next day, cells were treated with DMEM (vehicle) or 10 μM recombinant SOCS3 proteins for 96 hrs in the presence of serum (2%). Proteins were replaced daily. Cell growth and survival were evaluated with the CellTiter-Glo Cell Viability Assay (Promega, Madison, Wis.). Measurements using a Luminometer (Turner Designs, Sunnyvale, Calif.) were conducted following the manufacturer's protocol.

B1: HM165S3B: His-tagged recombinant protein of aMTD165, human SOCS3 and solubilization domain B; prototype improved cell-permeable SOCS3 (protein)
chain: MGSSHHHHHHSSGLVPRGSHMALAVPVALAIVPVTHSKFPAAGMETSRPLDTSLRLKTFSSKSEYQLVVNAVRKLQESGFYWSAVTGGEANLLLSAEPAGTFLIRDSSDQRHFFTLSVKTQSGTKNLRIQCEGGSFSLQSDPRSTQPVPRFDCVLKLVHHYMETPPPGAPSFPSPPTEPSSEVPEQPSAQPLPGSPPRRAYYIYSGGEKIPLVLSRPLSSNVATLQHLCRKTVNGHLDSYEKVTQLPGPIREFLDQYDAPLGSMAEQSDKDVKYYTLEEIQKHKDSKSTWVILHHKVYDLTKFLEEHPGGEEVLGEQAGGDATENFEDVGHSTDARELSKTYIIGELHPDDRSKIAKPSETL
modifications: Amino acid sequence of HM165S3B
B1: the “cell viability of non-cancer cells (Chang cell)” value is reported as “not overly toxic to normal cells”.
